Measurements as given in IntAct's records for PubMed 22228096.

Target: dnm1l_human DNM1L (UniProt O00429)
Sequence (O00429 whole entry): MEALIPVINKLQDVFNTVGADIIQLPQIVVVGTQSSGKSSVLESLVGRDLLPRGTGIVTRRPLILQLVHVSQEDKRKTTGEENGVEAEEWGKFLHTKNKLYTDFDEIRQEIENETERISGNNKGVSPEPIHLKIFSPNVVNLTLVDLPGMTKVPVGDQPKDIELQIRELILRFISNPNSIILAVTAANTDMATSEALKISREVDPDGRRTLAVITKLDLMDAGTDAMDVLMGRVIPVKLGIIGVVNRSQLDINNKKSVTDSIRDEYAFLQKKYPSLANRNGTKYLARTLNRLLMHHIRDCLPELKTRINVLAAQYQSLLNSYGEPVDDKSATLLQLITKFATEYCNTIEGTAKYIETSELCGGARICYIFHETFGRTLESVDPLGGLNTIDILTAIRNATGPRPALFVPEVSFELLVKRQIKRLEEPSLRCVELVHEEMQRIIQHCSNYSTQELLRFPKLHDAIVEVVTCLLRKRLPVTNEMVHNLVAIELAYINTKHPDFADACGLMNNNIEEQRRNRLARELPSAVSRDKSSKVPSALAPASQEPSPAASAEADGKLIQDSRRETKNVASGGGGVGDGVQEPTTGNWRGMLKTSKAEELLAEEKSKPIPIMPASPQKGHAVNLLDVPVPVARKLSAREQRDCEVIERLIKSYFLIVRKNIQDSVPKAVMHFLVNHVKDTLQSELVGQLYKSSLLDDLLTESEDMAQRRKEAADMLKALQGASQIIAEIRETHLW

Substance	effect of a mutation on the interaction
Leucine-rich repeat serine/threonine-protein kinase 2 (Homo sapiens), Q5S007 D1994A	decreasing interaction
Leucine-rich repeat serine/threonine-protein kinase 2 (Homo sapiens), Q5S007 G2019S	increasing interaction
Leucine-rich repeat serine/threonine-protein kinase 2 (Homo sapiens), Q5S007 K1347A	decreasing interaction
Leucine-rich repeat serine/threonine-protein kinase 2 (Homo sapiens), Q5S007 R1441C	increasing interaction
